Data as given in IntAct's records for PubMed 24105263.

B1: Vesicle-associated membrane protein-associated protein A (Homo sapiens), Q9P0L0 (parent)
chain: MASASGAMAKHEQILVLDPPTDLKFKGPFTDVVTTNLKLRNPSDRKVCFKVKTTAPRRYCVRPNSGIIDPGSTVTVSVMLQPFDYDPNEKSKHKFMVQTIFAPPNTSDMEAVWKEAKPDELMDSKLRCVFEMPNENDKLNDMEPSKAVPLNASKQDGPMPKPHSVSLNDTETRKLMEECKRLQGEMMKLSEENRHLRDEGLRLRKVAHSDKPGSTSTASFRDNVTSPLPSLLVVIAAIFIGFFLGKFIL
partner: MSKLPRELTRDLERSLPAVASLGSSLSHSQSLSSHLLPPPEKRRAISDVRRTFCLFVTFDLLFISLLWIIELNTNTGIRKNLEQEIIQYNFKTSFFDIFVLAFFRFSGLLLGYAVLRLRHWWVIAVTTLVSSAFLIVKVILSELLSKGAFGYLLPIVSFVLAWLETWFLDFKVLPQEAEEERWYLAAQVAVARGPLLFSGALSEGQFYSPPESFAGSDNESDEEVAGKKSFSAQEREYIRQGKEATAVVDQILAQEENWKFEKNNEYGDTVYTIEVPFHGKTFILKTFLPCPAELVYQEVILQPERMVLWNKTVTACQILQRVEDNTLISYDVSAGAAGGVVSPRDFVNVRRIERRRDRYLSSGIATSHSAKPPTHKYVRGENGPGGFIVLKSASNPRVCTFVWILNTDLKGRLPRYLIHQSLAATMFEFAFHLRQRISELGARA
B2: Vesicle-associated membrane protein-associated protein A (Homo sapiens), Q9P0L0 (parent)
chain: B1 chain
partner: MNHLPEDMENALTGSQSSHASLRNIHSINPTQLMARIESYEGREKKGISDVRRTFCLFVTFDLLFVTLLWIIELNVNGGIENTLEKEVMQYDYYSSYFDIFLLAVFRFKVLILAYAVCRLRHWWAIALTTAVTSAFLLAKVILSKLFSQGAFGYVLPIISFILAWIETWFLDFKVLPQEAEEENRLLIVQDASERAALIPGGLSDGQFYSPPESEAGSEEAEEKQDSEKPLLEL

Variants of: B1
Details: with STARD3, Q14849-1

effect of a mutation on the interaction	Variant
decreasing interaction strength	MASASGAMAKHEQILVLDPPTDLKFKGPFTDVVTTNLKLRNPSDRKVCFKVKTTAPRRYCVRPNSGIIDPGSTVTVSVMLQPFDYDPNEKSKHDFDVQTIFAPPNTSDMEAVWKEAKPDELMDSKLRCVFEMPNENDKLNDMEPSKAVPLNASKQDGPMPKPHSVSLNDTETRKLMEECKRLQGEMMKLSEENRHLRDEGLRLRKVAHSDKPGSTSTASFRDNVTSPLPSLLVVIAAIFIGFFLGKFIL [K94D;M96D]

Variants of: B2
Details: with STARD3NL

effect of a mutation on the interaction	Variant
decreasing interaction strength	MASASGAMAKHEQILVLDPPTDLKFKGPFTDVVTTNLKLRNPSDRKVCFKVKTTAPRRYCVRPNSGIIDPGSTVTVSVMLQPFDYDPNEKSKHDFDVQTIFAPPNTSDMEAVWKEAKPDELMDSKLRCVFEMPNENDKLNDMEPSKAVPLNASKQDGPMPKPHSVSLNDTETRKLMEECKRLQGEMMKLSEENRHLRDEGLRLRKVAHSDKPGSTSTASFRDNVTSPLPSLLVVIAAIFIGFFLGKFIL [K94D;M96D]
